Conditions: Homo sapiens, Thermal, DSC, reversible: no, whole UniProt chain shown

B1: Annexin A5 wild type, P08758 (protein)
chain: MAQVLRGTVTDFPGFDERADAETLRKAMKGLGTDEESILTLLTSRSNAQRQEISAAFKTLFGRDLLDDLKSELTGKFEKLIVALMKPSRLYDAYELKHALKGAGTNEKVLTEIIASRTPEELRAIKQVYEEEYGSSLEDDVVGDTSGYYQRMLVVLLQANRDPDAGIDEAQVEQDAQALFQAGELKWGTDEEKFITIFGTRSVSHLRKVFDKYMTISGFQIEETIDRETSGNLEQLLLAVVKSIRSIPAYLAETLYYAMKGAGTDDHTLIRVMVSRSEIDLFNIRKEFRKNFATSLYSMIKGDTSGDYKKALLLLCGEDD
For B1, the Tm (pH 4, Sodium phosphate 20 mM) was 40.6 °C, the “unfolding enthalpy (calorimetric)” value (pH 4, Sodium phosphate 20 mM) was 128 kcal/mol and the “unfolding enthalpy (van 't Hoff)” value (pH 4, Sodium phosphate 20 mM) was 151 kcal/mol. For the same protein, the Tm (pH 6, Sodium phosphate 20 mM) was 50.5 °C, the “unfolding enthalpy (calorimetric)” value (pH 6, Sodium phosphate 20 mM) was 147 kcal/mol and the “unfolding enthalpy (van 't Hoff)” value (pH 6, Sodium phosphate 20 mM) was 174 kcal/mol. The Tm (pH 7, Sodium phosphate 20 mM) was 53.4 °C, the “unfolding enthalpy (calorimetric)” value (pH 7, Sodium phosphate 20 mM) was 163 kcal/mol and the “unfolding enthalpy (van 't Hoff)” value (pH 7, Sodium phosphate 20 mM) was 189 kcal/mol. For the same protein, the Tm (pH 8, Sodium phosphate 20 mM) was 54.4 °C, the “unfolding enthalpy (calorimetric)” value (pH 8, Sodium phosphate 20 mM) was 162 kcal/mol and the “unfolding enthalpy (van 't Hoff)” value (pH 8, Sodium phosphate 20 mM) was 199 kcal/mol. For the same protein, the Tm (pH 8, Tris 50 mM, KCl 100 mM) was 52.5 °C, the “unfolding enthalpy (calorimetric)” value (pH 8, Tris 50 mM, KCl 100 mM) was 163 kcal/mol and the “unfolding enthalpy (van 't Hoff)” value (pH 8, Tris 50 mM, KCl 100 mM) was 190 kcal/mol.

— FireProtDB (doi:10.1021/bi962163z)
